In patent US20180127498A1 (UCB, published 2018):
Values joined by “and” are separate entries in the source; they are usually repeats but may differ in a detail not shown here. Equal entries are not always repeated.

Assays:
[1] = biological target: T1, Human FcRn extracellular domain (non-covalent complex of human FcRn alpha chain extracellular domain and … (human, UniProt P55899 24-297; P61769 21-119); assay: SPR Biacore T200, binder captured via anti-human F(ab')2, FcRn ECD as analyte, pH7.4, average of 5; pH 7.4
T1 construct: also called hFcRn
Procedure: (§1) Biomolecular interaction analysis using surface plasmon resonance technology (SPR) was performed on a Biacore T200 system (GE Healthcare) and binding to human FcRn extracellular domain determined. Human FcRn extracellular domain was provided as a non-covalent complex between the human FcRn alpha chain extracellular domain (SEQ ID NO: 21) and β2 microglobulin (β2M) (SEQ ID NO: 23). Affinipure F(ab′)₂ fragment goat anti-human IgG, F(ab′)₂-specific (Jackson ImmunoResearch Lab, Inc.) at 50 μg/ml in 10 mM NaAc, pH 5 buffer was immobilized on a CMS Sensor Chip via amine coupling chemistry to a capture level between 4000-5000 response units (RU) using HBS-EP⁺(GE Healthcare) as the running buffer.
(§2) The antibody, 1735h5.hFab-scFv.768 was diluted to 0.25 μg/ml in running buffer and an injection 60 s at 10 μl/min was used for capture by the immobilized anti-human F(ab)₂. […] The surface was regenerated at 10 μl/min by 2×60 s 50 mM HCl for the running buffer at pH6 or by 60 s 40 mM HCl and 30 s 10 mM NaOH for the running buffer at pH7.4. The data was analysed using Biacore T200 evaluation software (version 1.0) using the 1:1 binding model with local Rmax.

[2] = biological target: T1, Human FcRn extracellular domain …; assay: SPR Biacore T200, binder captured via anti-human F(ab')2, FcRn ECD as analyte, pH6, average of 5; pH 6
Procedure: as §1, §2

[3] = biological target: T1, Human FcRn extracellular domain …; assay: SPR Biacore T200, binder captured via anti-human F(ab')2, FcRn ECD as analyte, pH6; pH 6
Procedure: as §1, §2

[4] = biological target: T2, Cynomolgus monkey FcRn extracellular domain (non-covalent complex of Cynomolgus monkey FcRn alpha chain … (Cynomolgus monkey, UniProt Q8SPV9 24-297; Q8SPW0 21-119); assay: SPR Biacore T200, binder captured via anti-human F(ab')2, cyno FcRn ECD as analyte, pH6; pH 6
T2 construct: also called non-human primate FcRn
Procedure: (§3) Biomolecular interaction analysis using surface plasmon resonance technology (SPR) was performed on a Biacore T200 system (GE Healthcare) and binding to Cynomolgus monkey FcRn extracellular domain determined. Cynomolgus monkey FcRn extracellular domain was provided as a non-covalent complex between the Cynomolgus monley FcRn alpha chain extracellular domain (SEQ ID NO: 17) and […] (β2M) (SEQ ID NO: 18). Affinipure F(ab′)₂ fragment goat anti-human IgG, F(ab′)₂-specific (Jackson ImmunoResearch Lab, Inc.) at 50 μg/ml in 10 mM NaAc, pH 5 buffer was immobilized on a CMS Sensor Chip via amine coupling chemistry to a capture level between 4000-5000 response units (RU) using HBS-EP⁺ (GE Healthcare) as the running buffer.
(§4) The antibody, 1735h5.hFab-scFv.768 diluted to0.5 μg/ml in running buffer and an injection of 60 s at 10 μl/min was used for capture by the immobilized anti-human F(ab′)₂. […] The surface was regenerated at 10 μl/min by 2×60 s 50 mM HCl for the running buffer at pH6 or by 60 s 40 mM HCl and 30 s 10 mM NaOH for the running buffer at pH7.4.
(§5) The data was analysed using Biacore T200 evaluation software (version 1.0) using the 1:1 binding model with local Rmax.

[5] = biological target: T2, Cynomolgus monkey FcRn extracellular …; assay: SPR Biacore T200, binder captured via anti-human F(ab')2, cyno FcRn ECD as analyte, pH7.4; pH 7.4
Procedure: as §3, §4, §5

[6] = biological target: T2, Cynomolgus monkey FcRn extracellular …; assay: SPR Biacore T200, binder captured via anti-human F(ab')2, cyno FcRn ECD as analyte, pH6, average of 5; pH 6
Procedure: as §3, §4, §5

[7] = biological target: T2, Cynomolgus monkey FcRn extracellular …; assay: SPR Biacore T200, binder captured via anti-human F(ab')2, cyno FcRn ECD as analyte, pH7.4, average of 5; pH 7.4
Procedure: as §3, §4, §5

Kd [1]: 0.0458 nM | koff [1]: 3.94e-05 s⁻¹ | kon [1]: 861000 M⁻¹ s⁻¹ | Kd [2]: 0.16 nM | koff [2]: 0.000181 s⁻¹ | kon [2]: 1.13e+06 M⁻¹ s⁻¹ | kon [3]: 1.2e+06 M⁻¹ s⁻¹ and 1.1e+06 M⁻¹ s⁻¹ (3×) | kon [4]: 1.26e+06 M⁻¹ s⁻¹ and 1.24e+06 M⁻¹ s⁻¹ | kon [5]: 1e+06 M⁻¹ s⁻¹ (2×) and 999000 M⁻¹ s⁻¹ | Kd [6]: 0.158 nM | koff [6]: 0.000197 s⁻¹ | kon [6]: 1.25e+06 M⁻¹ s⁻¹ | Kd [7]: 0.045 nM | koff [7]: 4.52e-05 s⁻¹ | kon [7]: 1e+06 M⁻¹ s⁻¹
B1: 1735h5.hFab-scFv.768 (bispecific antibody)
heavy: EVQLVESGGGLVQPGGSLRLSCAASGFSLSTYGVGVGWVRQAPGKGLEWLANIWWDDDKRYNPSLENRFTISRDNAKNSAYLQMNSLRAEDTAVYYCARTPAYYGSHPPFDYWGQGTMVTVSSASTKGPSVFPLAPSSKSTSGGTAALGCLVKDYFPEPVTVSWNSGALTSGVHTFPAVLQSSGLYSLSSVVTVPSSSLGTQTYICNVNHKPSNTKVDKKVEPKSCSGGGGTGGGGSEVQLLESGGGLVQPGGSLRLSCAVSGIDLSNYAINWVRQAPGKCLEWIGIIWASGTTFYATWAKGRFTISRDNSKNTVYLQMNSLRAEDTAVYYCARTVPGYSTAPYFDLWGQGTLVTVSSGGGGSGGGGSGGGGSGGGGSDIQMTQSPSSVSASVGDRVTITCQSSPSVWSNFLSWYQQKPGKAPKLLIYEASKLTSGVPSRFSGSGSGTDFTLTISSLQPEDFATYYCGGGYSSISDTTFGCGTKVEIKRT
light: DIQMTQSPSSLSASVGDRVTITCRTSEDIYTNLAWYQQKPGKVPKLLIYVAKTLQEGVPSRFSGSGSGTHYTLTISSLQPEDVATYYCLQGFKFPWTFGGGTKVEIKRTVAAPSVFIFPPSDEQLKSGTASVVCLLNNFYPREAKVQWKVDNALQSGNSQESVTEQDSKDSTYSLSSTLTLSKADYEKHKVYACEVTHQGLSSPVTKSFNRGEC
notes: Anti-FcRn Fab (1638.g49 V-regions) fused at the C-terminus of CH1 to an anti-albumin disulphide stabilised scFv; expressed in CHO DG44; Monovalent for FcRn; also called Fab-dsscFv fusion protein comprising the 1638.g49 variable domains; anti-hFcRn 1735h5.hFab-scFv.768
